± gives the standard deviation of the averaged measurements.
System: ATP
Assay: switch fluorescence ratio, 500 uM ATP over buffer (Cy3 cluster intensity, sum of 5 cycles each) (fold (ratio)); higher = stronger signal-on switching upon ATP binding; sequences stand for … in TCGTCGGCAGCGTCAGATGTGTATAAGAGACAGTTTTTTTTTTTTTTTTTTTTTTTTT…TC
Conditions: aptamer strand: ATP DNA aptamer (quencher-CACCTGGGGGAGTATTGCGGAGGAAGG + anchor), 100 nM annealed; ATP concentration: 500 uM
Method in brief: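 After annealing to 100 nM quencher-labelled ATP aptamer, Cy3-labelled switching-strand clusters on a modified Illumina MiSeq flow-cell were imaged in selection buffer. A second image followed after 15 min with 500 uM ATP at 22 °C, and five such buffer/ATP cycles were done, each separated by NaOH stripping and re-annealing. The fluorescence ratio, averaged per switch-domain sequence, is summed target-cycle over summed buffer-cycle Cy3 intensity per cluster, with clusters outside 100-1000 RFU excluded.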
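Also: ATP exposure 15 min at 22 °C before imaging.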

| Sequence | switch fluorescence ratio |
| --- | --- |
| CCGTAAGGAA | 1.06 ± 0.11 |
| CCGTAGCGTT | 6.12 ± 1.5 |
| CCGTAGGGCT | 1.05 ± 0.042 |
| CCGTATCCCT | 1.03 ± 0.043 |
| CCGTATTGGT | 1.03 ± 0.039 |
| CCGTCAGGCG | 1.039 ± 0.0067 |
| CCGTCCGGTT | 1.16 ± 0.018 |
| CCGTCTACTG | 1.04 ± 0.013 |
| CCGTGCACGG | 0.978 ± 0.021 |
| CCGTGCAGTA | 3.14 ± 1.2 |
| CCGTGGGGTA | 0.974 ± 0.031 |
| CCGTGTATGT | 1.045 ± 0.0062 |
| CCGTGTGACT | 1.08 ± 0.042 |
| CCGTGTTCTA | 1.03 ± 0.063 |
| CCGTGTTGCT | 1.12 ± 0.061 |
| CCGTTACATG | 1.05 ± 0.017 |
| CCGTTCTTAC | 2.84 ± 1.1 |
| CCGTTGAAGG | 1.01 ± 0.016 |
| CCGTTGAGGG | 1.01 ± 0.086 |
| CCGTTGCGTG | 1 ± 0.036 |
| CCGTTGCTTT | 1.35 ± 0.14 |
| CCGTTGGTGG | 0.983 ± 0.024 |
| CCGTTGTGAA | 1.043 ± 0.0012 |

| Sequence | switch fluorescence ratio |
| --- | --- |
| CCGTTTAAAA | 1.11 ± 0.15 |
| CCGTTTAGGG | 0.999 ± 0.016 |
| CCGTTTTTGG | 0.993 ± 0.016 |
| CCTAACCTCT | 1.01 ± 0.032 |
| CCTAATGAA | 1.2 ± 0.28 |
| CCTAATGTAA | 1.08 ± 0.027 |
| CCTACATGTG | 1.26 ± 0.11 |
| CCTACCGTGG | 1.31 ± 0.11 |
| CCTACGGGCC | 2.16 ± 0.12 |
| CCTAGATAAC | 1.16 ± 0.039 |
| CCTAGGGCGG | 1.006 ± 0.0011 |
| CCTAGGGGAG | 1.04 ± 0.04 |
| CCTAGGGGGA | 1.05 ± 0.021 |
| CCTAGGGTGG | 1.03 ± 0.069 |
| CCTAGGGTTA | 1.01 ± 0.074 |
| CCTAGGTTTC | 0.981 ± 0.035 |
| CCTATAGTAC | 1.69 ± 0.05 |
| CCTATCGAAT | 1.97 ± 1.1 |
| CCTATCGTTG | 1.08 ± 0.0056 |
| CCTATTAAAC | 1.04 ± 0.036 |
| CCTCACAGTT | 1.24 ± 0.096 |
| CCTCAGACAG | 1.58 ± 0.052 |
| CCTCAGCAGA | 3.75 ± 0.53 |

| Sequence | switch fluorescence ratio |
| --- | --- |
| CCTCATGCCA | 2.3 ± 0.11 |
| CCTCGAGACT | 1.43 ± 0.032 |
| CCTCGGCGGT | 2.47 ± 1.7 |
| CCTCGGTTGG | 1.011 ± 0.0035 |
| CCTCGTTAGC | 2.63 ± 0.13 |
| CCTCTATGAT | 1.42 ± 0.044 |
| CCTCTGGGAT | 2.24 ± 1.7 |
| CCTGAAGGCA | 1 ± 0.011 |
| CCTGAGGGTT | 0.985 ± 0.0069 |
| CCTGATAATT | 1.02 ± 0.02 |
| CCTGATAGCG | 1.05 ± 0.03 |
| CCTGGATTGC | 1.24 ± 0.093 |
| CCTGGCTTTT | 1.047 ± 0.007 |
| CCTGGGCAAG | 3.81 ± 0.36 |
| CCTGGGCCTT | 1.01 ± 0.025 |
| CCTGGGGAAT | 1.91 ± 1.1 |
| CCTGGGGCTG | 1.12 ± 0.14 |
| CCTGGGGGGT | 1.06 ± 0.13 |
| CCTGGGTAGC | 1.1 ± 0.045 |
| CCTGTAATGT | 1.12 ± 0.042 |
| CCTGTAGGCC | 0.998 ± 0.027 |
| CCTGTGGACG | 0.914 ± 0.048 |
| CCTGTGTAGC | 1.092 ± 0.0031 |

| Sequence | switch fluorescence ratio |
| --- | --- |
| CCTGTTCGCT | 1.21 ± 0.014 |
| CCTGTTCGGC | 1.02 ± 0.038 |
| CCTGTTGGGG | 0.991 ± 0.039 |
| CCTGTTTTTT | 1.02 ± 0.022 |
| CCTTAATTTT | 1.01 ± 0.019 |
| CCTTAGTGTT | 1.03 ± 0.015 |
| CCTTCTGCCG | 1.203 ± 0.0042 |
| CCTTCTGGGG | 1.12 ± 0.051 |
| CCTTGAAAGG | 1 ± 0.011 |
| CCTTGAATCG | 0.978 ± 0.023 |
| CCTTGAGGGA | 1.06 ± 0.11 |
| CCTTGGACGG | 1.03 ± 0.02 |
| CCTTGGATTG | 0.9851 ± 0.0018 |
| CCTTGGGACG | 0.992 ± 0.062 |
| CCTTGGTCTT | 0.9979 ± 0.009 |
| CCTTGTGCAG | 1.25 ± 0.018 |
| CCTTGTTATC | 1.1 ± 0.1 |
| CCTTTCGGCT | 1.068 ± 0.0038 |
| CCTTTGGAGG | 0.981 ± 0.016 |
| CCTTTGGTTA | 1.03 ± 0.028 |
| CCTTTGGTTT | 0.982 ± 0.013 |
| CCTTTTACTT | 1.03 ± 0.032 |
| CCTTTTGGGG | 1.03 ± 0.061 |

| Sequence | switch fluorescence ratio |
| --- | --- |
| CCTTTTTGTC | 1.12 ± 0.06 |
| CCTTTTTTAT | 1.03 ± 0.085 |
| CCTTTTTTTT | 1.01 ± 0.011 |
| CGAAAAGGAG | 1.01 ± 0.015 |
| CGAAAATCTT | 0.9949 ± 0.0095 |
| CGAAACTTTG | 0.974 ± 0.046 |
| CGAAAGCGGC | 1.23 ± 0.014 |
| CGAAATCGGG | 1.02 ± 0.018 |
| CGAACCGGCG | 1.03 ± 0.017 |
| CGAACGCCTG | 1.1 ± 0.036 |
| CGAACTGAGG | 0.985 ± 0.014 |
| CGAACTGCGT | 1.02 ± 0.034 |
| CGAAGAGGTG | 1.07 ± 0.021 |
| CGAAGCTTTT | 1.089 ± 0.003 |
| CGAAGGAATC | 1.78 ± 1.1 |
| CGAAGGATTT | 1.003 ± 0.0041 |
| CGAAGGCGTG | 1 ± 0.018 |
| CGAAGGGGAA | 1.03 ± 0.099 |
| CGAAGGGGTA | 0.987 ± 0.018 |
| CGAAGGTTAG | 0.987 ± 0.024 |
| CGAAGGTTGC | 1.01 ± 0.04 |
| CGAAGGTTTG | 0.945 ± 0.058 |
| CGAAGTCGGG | 0.955 ± 0.015 |

| Sequence | switch fluorescence ratio |
| --- | --- |
| CGAAGTCGTC | 1.02 ± 0.021 |
| CGAAGTCTTT | 0.989 ± 0.044 |
| CGAAGTTATA | 1.19 ± 0.038 |
| CGAATATAAA | 0.994 ± 0.054 |
| CGAATATACG | 1.04 ± 0.021 |
| CGAATATCAT | 0.9747 ± 0.0047 |
| CGAATATGAT | 1.02 ± 0.058 |
| CGAATATTGA | 0.959 ± 0.038 |
| CGAATTGATA | 1.01 ± 0.013 |
| CGAATTTGCT | 1.01 ± 0.0079 |
| CGACAAAAAT | 1.89 ± 1 |
| CGACACCGTG | 1.025 ± 0.0013 |
| CGACACTTAG | 1.049 ± 0.0091 |
| CGACATCGCA | 1.321 ± 0.0068 |
| CGACATGAAT | 1.037 ± 0.0082 |
| CGACATTGAG | 0.967 ± 0.012 |
| CGACATTGCA | 1.09 ± 0.022 |
| CGACCAGATA | 1.078 ± 0.0037 |
| CGACCATTAA | 1.264 ± 0.0043 |
| CGACCCTGGA | 1.105 ± 0.01 |
| CGACCTTGGC | 1.02 ± 0.1 |
| CGACGAATAG | 1.29 ± 0.063 |
| CGACGACAGG | 1.35 ± 0.024 |

| Sequence | switch fluorescence ratio |
| --- | --- |
| CGACGTATTG | 1.02 ± 0.03 |
| CGACGTTAGT | 0.995 ± 0.025 |
| CGACTAAAAT | 1.013 ± 0.0066 |
| CGACTATCGC | 1.12 ± 0.06 |
| CGACTGCAGT | 1.19 ± 0.014 |
| CGACTGGCTG | 1.01 ± 0.049 |
| CGAGAACTGG | 1.09 ± 0.14 |
| CGAGAAGTTC | 1.02 ± 0.091 |
| CGAGACAGGA | 1.007 ± 0.0017 |
| CGAGAGGTGG | 1.04 ± 0.055 |
| CGAGATTGGT | 0.973 ± 0.016 |
| CGAGCATTGA | 1.12 ± 0.012 |
| CGAGCATTGT | 1.16 ± 0.031 |
| CGAGCATTTA | 1.325 ± 0.012 |
| CGAGCGGCTA | 1.016 ± 0.0013 |
| CGAGCGGTTG | 0.999 ± 0.013 |
| CGAGCTCCAT | 1.015 ± 0.0054 |
| CGAGGAAAGG | 0.9865 ± 0.0089 |
| CGAGGAAATG | 1.06 ± 0.011 |
